Assay results published in IntAct's records for PubMed 12601044.

B1: Gamma-crystallin C (Homo sapiens), P07315 (parent)
chain: MGKITFYEDRAFQGRSYETTTDCPNLQPYFSRCNSIRVESGCWMLYERPNYQGQQYLLRRGEYPDYQQWMGLSDSIRSCCLIPQTVSHRLRLYEREDHKGLMMELSEDCPSIQDRFHLSEIRSLHVLEGCWVLYELPNYRGRQYLLRPQEYRRCQDWGAMDAKAGSLRRVVDLY
partner: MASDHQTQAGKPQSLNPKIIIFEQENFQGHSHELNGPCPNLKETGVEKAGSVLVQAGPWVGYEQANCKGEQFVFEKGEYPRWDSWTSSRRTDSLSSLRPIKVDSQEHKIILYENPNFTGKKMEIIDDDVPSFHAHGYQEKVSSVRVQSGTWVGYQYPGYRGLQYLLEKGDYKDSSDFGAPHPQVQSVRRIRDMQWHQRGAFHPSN
B2: Alpha-crystallin B chain (Homo sapiens), P02511 (parent)
chain: MDIAIHHPWIRRPFFPFHSPSRLFDQFFGEHLLESDLFPTSTSLSPFYLRPPSFLRAPSWFDTGLSEMRLEKDRFSVNLDVKHFSPEELKVKVLGDVIEVHGKHEERQDEHGFISREFHRKYRIPADVDPLTITSSLSSDGVLTVNGPRKQVSGPERTIPITREEKPAVTAAPKK
partner: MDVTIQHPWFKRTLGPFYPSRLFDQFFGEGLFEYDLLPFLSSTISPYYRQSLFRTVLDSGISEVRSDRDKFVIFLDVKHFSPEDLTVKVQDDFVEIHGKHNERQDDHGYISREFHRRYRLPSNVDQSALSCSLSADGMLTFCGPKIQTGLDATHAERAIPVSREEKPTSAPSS
B3: Alpha-crystallin A chain (Homo sapiens), P02489 (parent)
chain: B2 partner
partner: B2 chain
B4: Alpha-crystallin A chain (Homo sapiens), P02489 (parent)
chain: B2 partner
partner: B1 partner
B5: Gamma-crystallin C (Homo sapiens), P07315 (parent)
chain: B1 chain
partner: B2 chain
B6: Alpha-crystallin B chain (Homo sapiens), P02511 (parent)
chain: B2 chain
partner: B1 partner
B7: Alpha-crystallin A chain (Homo sapiens), P02489 (parent)
chain: B2 partner

Variants of: B1
Settings: with crbb2_human CRYBB2, P43320

Variant | effect of a mutation on the interaction
T5P | disrupting interaction

Variants of: B2
Settings: with cryaa_human CRYAA

Variant | effect of a mutation on the interaction
MDIAIHHPWIRRPFFPFHSPSRLFDQFFGEHLLESDLFPTSTSLSPFYLRPPSFLRAPSWFDTGLSEMRLEKDRFSVNLDVKHFSPEELKVKVLGDVIEVHGKHEERQDEHGFISREFHGKYRIPADVDPLTITSSLSSDGVLTVNGPRKQVSGPERTIPITREEKPAVTAAPKK [R120G] | decreasing interaction

Variants of: B3
Settings: with cryab_human CRYAB

Variant | effect of a mutation on the interaction
MDVTIQHPWFKRTLGPFYPSRLFDQFFGEGLFEYDLLPFLSSTISPYYRQSLFRTVLDSGISEVRSDRDKFVIFLDVKHFSPEDLTVKVQDDFVEIHGKHNERQDDHGYISREFHCRYRLPSNVDQSALSCSLSADGMLTFCGPKIQTGLDATHAERAIPVSREEKPTSAPSS [R116C] | increasing interaction

Variants of: B4
Settings: with crbb2_human CRYBB2, P43320

Variant | effect of a mutation on the interaction
MDVTIQHPWFKRTLGPFYPSRLFDQFFGEGLFEYDLLPFLSSTISPYYRQSLFRTVLDSGISEVRSDRDKFVIFLDVKHFSPEDLTVKVQDDFVEIHGKHNERQDDHGYISREFHCRYRLPSNVDQSALSCSLSADGMLTFCGPKIQTGLDATHAERAIPVSREEKPTSAPSS [R116C] | disrupting interaction

Variants of: B5
Settings: with cryab_human CRYAB

Variant | effect of a mutation on the interaction
T5P | disrupting interaction

Variants of: B6
Settings: with crbb2_human CRYBB2, P43320

Variant | effect of a mutation on the interaction
MDIAIHHPWIRRPFFPFHSPSRLFDQFFGEHLLESDLFPTSTSLSPFYLRPPSFLRAPSWFDTGLSEMRLEKDRFSVNLDVKHFSPEELKVKVLGDVIEVHGKHEERQDEHGFISREFHGKYRIPADVDPLTITSSLSSDGVLTVNGPRKQVSGPERTIPITREEKPAVTAAPKK [R120G] | increasing interaction

Variants of: B7
Settings: with crgc_human CRYGC

Variant | effect of a mutation on the interaction
MDVTIQHPWFKRTLGPFYPSRLFDQFFGEGLFEYDLLPFLSSTISPYYRQSLFRTVLDSGISEVRSDRDKFVIFLDVKHFSPEDLTVKVQDDFVEIHGKHNERQDDHGYISREFHCRYRLPSNVDQSALSCSLSADGMLTFCGPKIQTGLDATHAERAIPVSREEKPTSAPSS [R116C] | disrupting interaction
